Data on four sequences can be found in paper PMC3630172.

The data set relates to GST-rPfPuf2 (Plasmodium falciparum). The data set is described as follows: EMSA. Particulars: LightShift RNA EMSA binding buffer (salt, pH not given), 5% glycerol, 2 ug tRNA per 20 ul, RNase inhibitor, 2.5 nM RNA, 0.25-400 nM rPfPuf2, room temperature …. On the technique in general: Mobility shift assays separate free from complexed probe on a gel.

As a reminder, the Kd is the equilibrium constant for the complex coming apart. For “GAAAUGUUCUUUUCCAAUUAUAUUUUGUUCGAUGAUUC [pfs28 RNA1M]”, the Kd worked out at 143 nM. On to “UUCUCAUUUCCUAAUAAAUUGUUGUGAAAACAA [pfs25 RNA1M]”, for which the Kd was 169 nM. Consider “GAAAUGUUCUUUUGUAAUUAUAUUUUGUUCGAUGAUUC [pfs28 RNA1]”, for which the Kd amounted to 6.7 nM. The result for “UUCUCAUUUGUUAAUAAAUUGUUGUGAAAACAA [pfs25 RNA1]” reads 11.5 nM.
